# Source: patent US20200199204A1
# What was measured:
# Test in all cases: cell-based or functional assay
# [1] = molecular target: HIV-1 Env of 0260.v5.c36 (HIV-1)
# [2] = molecular target: HIV-1 Env of 3016.V5.c36 (HIV-1)
# [3] = molecular target: HIV-1 Env of 6405.v4.c34 (HIV-1)
# [4] = molecular target: HIV-1 Env of 6535.3 (HIV-1)
# [5] = molecular target: HIV-1 Env of 96ZM651.02 (HIV-1)
# [6] = molecular target: HIV-1 Env of AC10.29 (HIV-1)
# [7] = molecular target: HIV-1 Env of BG505.w6m (HIV-1)
# [8] = molecular target: HIV-1 Env of C1080.c3 (HIV-1)
# [9] = molecular target: HIV-1 Env of CAAN.A2 (HIV-1)
# [10] = molecular target: HIV-1 Env of CAP210.E8 (HIV-1)
# [11] = molecular target: HIV-1 Env of CAP244.D3 (HIV-1)
# [12] = molecular target: HIV-1 Env of CAP256.PI (HIV-1)
# [13] = molecular target: HIV-1 Env of CAP256.SU (HIV-1)
# [14] = molecular target: HIV-1 Env of CAP45.G3 (HIV-1)
# [15] = molecular target: HIV-1 Env of CM244.ec1 (HIV-1)
# [16] = molecular target: HIV-1 Env of CNE3 (HIV-1)
# [17] = molecular target: HIV-1 Env of DU156.12 (HIV-1)
# [18] = molecular target: HIV-1 Env of DU172.17 (HIV-1)
# [19] = molecular target: HIV-1 Env of DU422.01 (HIV-1)
# [20] = molecular target: HIV-1 Env of KER2008.12 (HIV-1)
# [21] = molecular target: HIV-1 Env of KER2018.11 (HIV-1)
# [22] = molecular target: HIV-1 Env of MB201 (HIV-1)
# [23] = molecular target: HIV-1 Env of MB539.2B7 (HIV-1)
# [24] = molecular target: HIV-1 Env of PVO.04 (HIV-1)
# [25] = molecular target: HIV-1 Env of Q168.a2 (HIV-1)
# [26] = molecular target: HIV-1 Env of Q23.17 (HIV-1)
# [27] = molecular target: HIV-1 Env of Q259.d2.17 (HIV-1)
# [28] = molecular target: HIV-1 Env of Q461.e2 (HIV-1)
# [29] = molecular target: HIV-1 Env of Q769.d22 (HIV-1)
# [30] = molecular target: HIV-1 Env of Q842.d12 (HIV-1)
# [31] = molecular target: HIV-1 Env of QH0692.42 (HIV-1)
# [32] = molecular target: HIV-1 Env of REJO.67 (HIV-1)
# [33] = molecular target: HIV-1 Env of RHPA.7 (HIV-1)
# [34] = molecular target: HIV-1 Env of RW020.2 (HIV-1)
# [35] = molecular target: HIV-1 Env of SC422.8 (HIV-1)
# [36] = molecular target: HIV-1 Env of TH976.17 (HIV-1)
# [37] = molecular target: HIV-1 Env of THRO.18 (HIV-1)
# [38] = molecular target: HIV-1 Env of TRJO.58 (HIV-1)
# [39] = molecular target: HIV-1 Env of TRO.11 (HIV-1)
# [40] = molecular target: HIV-1 Env of UG037.8 (HIV-1)
# [41] = molecular target: HIV-1 Env of WITO.33 (HIV-1)
# [42] = molecular target: HIV-1 Env of ZM109.4 (HIV-1)
# [43] = molecular target: HIV-1 Env of ZM135.10a (HIV-1)
# [44] = molecular target: HIV-1 Env of ZM197.7 (HIV-1)
# [45] = molecular target: HIV-1 Env of ZM214.15 (HIV-1)
# [46] = molecular target: HIV-1 Env of ZM233.6 (HIV-1)
# [47] = molecular target: HIV-1 Env of ZM249.1 (HIV-1)
# [48] = molecular target: HIV-1 Env of ZM53.12 (HIV-1)
substance,measurement,setting,value
CAP256-VRC26.28 (antibody),"IC50 (neutralization, TZM-bl)",[1],> 50 µg/mL
same,"IC50 (neutralization, TZM-bl)",[2],0.008 µg/mL
same,"IC50 (neutralization, TZM-bl)",[3],> 50 µg/mL
same,"IC50 (neutralization, TZM-bl)",[4],> 50 µg/mL
same,"IC50 (neutralization, TZM-bl)",[5],> 50 µg/mL
same,"IC50 (neutralization, TZM-bl)",[6],> 50 µg/mL
same,"IC50 (neutralization, TZM-bl)",[7],0.044 µg/mL
same,"IC50 (neutralization, TZM-bl)",[8],0.012 µg/mL
same,"IC50 (neutralization, TZM-bl)",[9],> 50 µg/mL
same,"IC50 (neutralization, TZM-bl)",[10],< 0.0006 µg/mL
same,"IC50 (neutralization, TZM-bl)",[11],> 50 µg/mL
same,"IC50 (neutralization, TZM-bl)",[12],> 50 µg/mL
same,"IC50 (neutralization, TZM-bl)",[13],< 0.0006 µg/mL
same,"IC50 (neutralization, TZM-bl)",[14],0.016 µg/mL
same,"IC50 (neutralization, TZM-bl)",[15],0.64 µg/mL
same,"IC50 (neutralization, TZM-bl)",[16],> 50 µg/mL
same,"IC50 (neutralization, TZM-bl)",[17],0.171 µg/mL
same,"IC50 (neutralization, TZM-bl)",[18],> 50 µg/mL
same,"IC50 (neutralization, TZM-bl)",[19],0.075 µg/mL
same,"IC50 (neutralization, TZM-bl)",[20],0.76 µg/mL
same,"IC50 (neutralization, TZM-bl)",[21],< 0.0006 µg/mL
same,"IC50 (neutralization, TZM-bl)",[22],> 50 µg/mL
same,"IC50 (neutralization, TZM-bl)",[23],29.4 µg/mL
same,"IC50 (neutralization, TZM-bl)",[24],6 µg/mL
same,"IC50 (neutralization, TZM-bl)",[25],0.003 µg/mL
same,"IC50 (neutralization, TZM-bl)",[26],0.005 µg/mL
same,"IC50 (neutralization, TZM-bl)",[27],0.012 µg/mL
same,"IC50 (neutralization, TZM-bl)",[28],1.59 µg/mL
same,"IC50 (neutralization, TZM-bl)",[29],> 50 µg/mL
same,"IC50 (neutralization, TZM-bl)",[30],0.779 µg/mL
same,"IC50 (neutralization, TZM-bl)",[31],> 50 µg/mL
same,"IC50 (neutralization, TZM-bl)",[32],> 50 µg/mL
same,"IC50 (neutralization, TZM-bl)",[33],> 50 µg/mL
same,"IC50 (neutralization, TZM-bl)",[34],> 50 µg/mL
same,"IC50 (neutralization, TZM-bl)",[35],> 50 µg/mL
same,"IC50 (neutralization, TZM-bl)",[36],> 50 µg/mL
same,"IC50 (neutralization, TZM-bl)",[37],> 50 µg/mL
same,"IC50 (neutralization, TZM-bl)",[38],> 50 µg/mL
same,"IC50 (neutralization, TZM-bl)",[39],> 50 µg/mL
same,"IC50 (neutralization, TZM-bl)",[40],> 50 µg/mL
same,"IC50 (neutralization, TZM-bl)",[41],> 50 µg/mL
same,"IC50 (neutralization, TZM-bl)",[42],> 50 µg/mL
same,"IC50 (neutralization, TZM-bl)",[43],> 50 µg/mL
same,"IC50 (neutralization, TZM-bl)",[44],0.193 µg/mL
same,"IC50 (neutralization, TZM-bl)",[45],6.85 µg/mL
same,"IC50 (neutralization, TZM-bl)",[46],0.002 µg/mL
same,"IC50 (neutralization, TZM-bl)",[47],0.082 µg/mL
same,"IC50 (neutralization, TZM-bl)",[48],< 0.0006 µg/mL
